Measured values: patent US20200171161A1 (Bicycle, published 2020)
Numbered stars: 1 amine (or outer) side, 2 acyl side, 3 side chain; on linkers, the order of the positions; unused ones are H or OH. Bridge positions count the residues as written; N and C are the ends. Square brackets hold non-standard residues; d marks the D form. Ends that are not written are not given here. * marks the point of attachment. DOTA = O=C(O)CN1CCN(CC(=O)O)CCN(CC(=O)*)CCN(CC(=O)O)CC1; Phe(4-Br) = N[C@@H](Cc1ccc(Br)cc1)C(=O)O; 1Nal = N[C@@H](Cc1cccc2ccccc12)C(=O)O; TBMB = c1c(C[*:1])cc(C[*:3])cc1C[*:2]; Tle = CC(C)(C)[C@H](N)C(=O)O; βAla = NCCC(=O)O; Sar = CNCC(=O)O

B1: 17-69-07-N248, DOTA-A-(17-69-07) D-Ala1 1Nal4 D-Ala5 4BrPhe9 tBuGly11 (peptide)
chain: {DOTA}-AC[dA]NE[1Nal][dA]CEDF[Phe(4-Br)]D[Tle]C-NH2
modifications: linker 2-8-15 via TBMB
SMILES: C[C@H](NC(=O)CN1CCN(CC(=O)O)CCN(CC(=O)O)CCN(CC(=O)O)CC1)C(=O)N[C@H]1CSCc2cc3cc(c2)CSC[C@H](NC(=O)[C@@H](C)NC(=O)[C@H](Cc2cccc4ccccc24)NC(=O)[C@H](CCC(=O)O)NC(=O)[C@H](CC(N)=O)NC(=O)[C@@H](C)NC1=O)C(=O)N[C@@H](CCC(=O)O)C(=O)N[C@@H](CC(=O)O)C(=O)N[C@@H](Cc1ccccc1)C(=O)N[C@@H](Cc1ccc(Br)cc1)C(=O)N[C@@H](CC(=O)O)C(=O)N[C@@H](C(C)(C)C)C(=O)N[C@H](C(N)=O)CSC3
B2: 17-69-07-N252, Ac-(17-69-07) D-Ala1 1Nal4 D-Ala5 4BrPhe9 tBuGly11 (peptide)
chain: Ac-C[dA]NE[1Nal][dA]CEDF[Phe(4-Br)]D[Tle]C-NH2
modifications: linker 1-7-14 via TBMB
SMILES: CC(=O)N[C@H]1CSCc2cc3cc(c2)CSC[C@H](NC(=O)[C@@H](C)NC(=O)[C@H](Cc2cccc4ccccc24)NC(=O)[C@H](CCC(=O)O)NC(=O)[C@H](CC(N)=O)NC(=O)[C@@H](C)NC1=O)C(=O)N[C@@H](CCC(=O)O)C(=O)N[C@@H](CC(=O)O)C(=O)N[C@@H](Cc1ccccc1)C(=O)N[C@@H](Cc1ccc(Br)cc1)C(=O)N[C@@H](CC(=O)O)C(=O)N[C@@H](C(C)(C)C)C(=O)N[C@H](C(N)=O)CSC3
B3: 17-69-07-N241, bAla-Sar10-A-(17-69-07) D-Ala1 1Nal4 D-Ala5 tBuGly11 (peptide)
peptide: [βAla][Sar][Sar][Sar][Sar][Sar][Sar][Sar][Sar][Sar][Sar]AC[dA]NE[1Nal][dA]CEDFYD[Tle]C-NH2
modifications: linker 13-19-26 via TBMB; N-terminus assumed
SMILES: C[C@H](NC(=O)CN(C)C(=O)CN(C)C(=O)CN(C)C(=O)CN(C)C(=O)CN(C)C(=O)CN(C)C(=O)CN(C)C(=O)CN(C)C(=O)CN(C)C(=O)CN(C)C(=O)CCN)C(=O)N[C@H]1CSCc2cc3cc(c2)CSC[C@H](NC(=O)[C@@H](C)NC(=O)[C@H](Cc2cccc4ccccc24)NC(=O)[C@H](CCC(=O)O)NC(=O)[C@H](CC(N)=O)NC(=O)[C@@H](C)NC1=O)C(=O)N[C@@H](CCC(=O)O)C(=O)N[C@@H](CC(=O)O)C(=O)N[C@@H](Cc1ccccc1)C(=O)N[C@@H](Cc1ccc(O)cc1)C(=O)N[C@@H](CC(=O)O)C(=O)N[C@@H](C(C)(C)C)C(=O)N[C@H](C(N)=O)CSC3
notes: also called βAla-Sar10-A-C(D-Ala)NE(1Nal)(D-Ala)CEDFYD(tBuGly)C

Legend:
[1] = target: T1, dog MT1-MMP hemopexin domain (dog); assay: FP competition, dog hemopexin domain
T1 construct: domain: hemopexin domain
Procedure: (§1) Subsequently, the non-fluorescent competitor bicyclic peptide (usually just the bicycle core sequence) is titrated, such that it displaces the fluorescent tracer from the target protein. The displacement of the tracer is measured and associated with a drop in fluorescence polarisation. The drop in fluorescence polarisation is proportional to the fraction of target protein bound with the non-fluorescent titrant, and thus is a measure of the affinity of titrant to target protein.

[2] = target: T2, human MT1-MMP hemopexin domain (hemopexin-like repeats, residues Cys319-Gly511), N-terminally His6-tagged … (human, UniProt P50281 319-511); assay: Kd, method not named in table (FP competition by the methods)
T2 construct: range 319-511; Secreted from HEK293 cells; also called hemopexin protein; MT1-MMP (=MMP-14); not shown: N-terminal His6 tag from pEXPR-IBA42 vector

[3] = target: T2, human MT1-MMP hemopexin domain …; assay: FP competition vs MT1-MMP hemopexin domain (tracer not given)
Procedure: as §1

Row | Binder | Kd [1] | Kd [3] | other results
1 | G[Sar][Sar][Sar][Sar][Sar][Sar][Sar][Sar][Sar][Sar]ACYNEFGCEDFYDIC-NH2 (linker 13-19-26 via TBMB) [17-69-07-N219, G-Sar10-A-(17-69-07) (non-stabilised with spacer)] | 0.9 nM | – | –
2 | B1 | – | – | Kd [2]: 0.5 nM
3 | B2 | – | 0.8 nM | –
4 | B3 | 1.4 nM | – | –
5 | Ac-CYNEFGCEDFYD[Tle]C-NH2 (linker 1-7-14 via TBMB) [17-69-07-N100, Ac-(17-69-07) tBuGly11] | – | 1.56 nM | –
